Experimental data reported in publication PMC2810717.

Substrate: CC(=O)NCCCNCCCCNCCCN
Test: purified protein
Format: biochemical, Homo sapiens
Conditions: FAD; pH 8.3; 25.0 °C

B1: spermine oxidase (SMO) (Homo sapiens) (protein)
chain: MQSCESSGDSADDPLSRGLRRRGQPRVVVIGAGLAGLAAAKALLEQGFTDVTVLEASSHIGGRVQSVKLGHATFELGATWIHGSHGNPIYHLAEANGLLEETTDGERSVGRISLYSKNGVACYLTNHGRRIPKDVVEEFSDLYNEVYNLTQEFFRHDKPVNAESQNSVGVFTREEVRNRIRNDPDDPEATKRLKLAMIQQYLKVESCESSSHSMDEVSLSAFGEWTEIPGAHHIIPSGFMRVVELLAEGIPAHVIQLGKPVRCIHWDQASARPRGPEIEPRGEGDHNHDTGEGGQGGEEPRGGRWDEDEQWSVVVECEDCELIPADHVIVTVSLGVLKRQYTSFFRPGLPTEKVAAIHRLGIGTTDKIFLEFEEPFWGPECNSLQFVWEDEAESHTLTYPPELWYRKICGFDVLYPPERYGHVLSGWICGEEALVMEKCDDEAVAEICTEMLRQFTGNPNIPKPRRILRSAWGSNPYFRGSYSYTQVGSSGADVEKLAKPLPYTESSKTAPMQVLFSGEATHRKYYSTTHGALLSGQREAARLIEMYRDLFQQGT
Km: 492 ± 97 µM
